From US20220119534A1 (DRAGONFLY THERAPEUTICS, published 2022)
Values joined by “and” are separate entries in the source; they are usually repeats but may differ in a detail not shown here. Equal values may be shown once.

How the values were obtained:
[1] = target: T1, Human CLEC12A expressed on cells (Ba/F3-hCLEC12A, PL21, HL60) (human, UniProt Q5QGZ9 1-265); assay: cell-based or functional assay
T1 sequence: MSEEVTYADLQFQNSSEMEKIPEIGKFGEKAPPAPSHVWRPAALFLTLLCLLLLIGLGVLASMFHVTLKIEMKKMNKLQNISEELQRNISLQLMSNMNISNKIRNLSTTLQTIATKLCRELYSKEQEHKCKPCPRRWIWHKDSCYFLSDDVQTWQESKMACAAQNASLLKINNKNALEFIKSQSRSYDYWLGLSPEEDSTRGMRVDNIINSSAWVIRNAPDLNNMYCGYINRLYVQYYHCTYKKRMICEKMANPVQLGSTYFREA

[2] = target: T2, Human CLEC12A-His (recombinant, K244 WT) (human, UniProt Q5QGZ9 65-265); assay: SPR, two-state fit (ka1); control sample
T2 construct: Made in house (Dragonfly Tx); also called hCLEC12A; hCLEC12A-His; not shown: His tag
T2 sequence: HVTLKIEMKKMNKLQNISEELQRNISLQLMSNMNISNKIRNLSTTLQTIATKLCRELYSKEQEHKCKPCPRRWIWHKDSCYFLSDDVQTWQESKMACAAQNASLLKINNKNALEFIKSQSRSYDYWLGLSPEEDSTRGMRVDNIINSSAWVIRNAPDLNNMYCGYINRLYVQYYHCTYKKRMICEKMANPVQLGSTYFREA

[3] = target: T3, mFc-hNKG2D (recombinant mFc-tagged human NKG2D dimer) (human, UniProt P26718 73-216); assay: SPR; after forced oxidation
T3 construct: extracellular domain; Made in house; not shown: mouse Fc tag
T3 sequence (looked up): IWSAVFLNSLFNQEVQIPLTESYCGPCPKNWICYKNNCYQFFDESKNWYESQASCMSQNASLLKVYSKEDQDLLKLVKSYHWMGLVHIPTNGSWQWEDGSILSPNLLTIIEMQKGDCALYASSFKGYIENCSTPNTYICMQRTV

[4] = target: T4, Human CD16a V158 (FcγRIIIa V158) (human, UniProt P08637 17-208, biotinylated); assay: SPR; after forced oxidation
T4 construct: Bought recombinant receptor; also called hCD16aV; hFcγRIIIa V158
T4 sequence (P08637 17-208 F176V limits assumed): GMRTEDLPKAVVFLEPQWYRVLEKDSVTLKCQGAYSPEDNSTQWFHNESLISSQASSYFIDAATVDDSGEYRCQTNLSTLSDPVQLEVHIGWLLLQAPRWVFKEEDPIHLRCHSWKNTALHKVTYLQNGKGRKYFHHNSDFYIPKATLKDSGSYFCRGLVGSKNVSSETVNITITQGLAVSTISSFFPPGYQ

[5] = target: T5, Human CD32a H131 (FcγRIIa H131) (human, UniProt P12318 36-218, limits assumed, biotinylated); assay: SPR 25C, biotinylated receptor captured on SA chip
T5 construct: Bought recombinant receptor; also called hFcγRIIa H131; FcgRIIa H131
T5 sequence (looked up): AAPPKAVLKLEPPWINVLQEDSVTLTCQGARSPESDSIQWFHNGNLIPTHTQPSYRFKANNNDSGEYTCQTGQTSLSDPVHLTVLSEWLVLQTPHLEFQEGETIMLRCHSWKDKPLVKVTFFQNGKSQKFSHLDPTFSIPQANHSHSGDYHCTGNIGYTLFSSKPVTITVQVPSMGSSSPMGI

[6] = target: T6, Human CD32a R131 (FcγRIIa R131) (human, UniProt P12318 36-218, limits assumed, biotinylated); assay: SPR 25C, biotinylated receptor captured on SA chip
T6 construct: Bought recombinant receptor; also called hFcγRIIa R131; FcgRIIa R131
T6 sequence (looked up): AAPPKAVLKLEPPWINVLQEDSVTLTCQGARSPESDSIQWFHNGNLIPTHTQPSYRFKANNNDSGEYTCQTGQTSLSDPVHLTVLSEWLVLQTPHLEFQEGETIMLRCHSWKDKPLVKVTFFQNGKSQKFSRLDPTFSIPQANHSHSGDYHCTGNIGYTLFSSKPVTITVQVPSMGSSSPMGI

[7] = target: T3, mFc-hNKG2D (recombinant mFc-tagged …); assay: SPR; control sample
[8] = target: T4, Human CD16a V158 (FcγRIIIa V158); assay: SPR; control sample
[9] = target: T2, Human CLEC12A-His (recombinant, K244 WT); assay: SPR, two-state fit (ka1); after pH 8, 40C, 2 wks
[10] = target: T3, mFc-hNKG2D (recombinant mFc-tagged …); assay: SPR 37C, 1:1 kinetic fit, average
[11] = target: T7, mFc-hNKG2D (human, UniProt P26718 73-216); assay: SPR, 37 C, mFc-hNKG2D captured, 1:1 kinetic fit; average
T7 construct: extracellular domain; Recombinant mFc-tagged NKG2D dimer, made in house; also called human NKG2D; not shown: mouse Fc tag
T7 sequence (looked up): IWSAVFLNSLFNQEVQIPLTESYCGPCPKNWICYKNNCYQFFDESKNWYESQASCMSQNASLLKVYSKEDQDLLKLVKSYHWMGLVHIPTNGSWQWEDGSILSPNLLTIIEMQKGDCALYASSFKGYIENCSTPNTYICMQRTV

[12] = target: T8, recombinant human CD64 (human, UniProt P12314 16-288, biotinylated); assay: SPR 25C, kinetic fit
T8 construct: also called hFcγRI; hCD64
T8 sequence (P12314 16-288 limits assumed): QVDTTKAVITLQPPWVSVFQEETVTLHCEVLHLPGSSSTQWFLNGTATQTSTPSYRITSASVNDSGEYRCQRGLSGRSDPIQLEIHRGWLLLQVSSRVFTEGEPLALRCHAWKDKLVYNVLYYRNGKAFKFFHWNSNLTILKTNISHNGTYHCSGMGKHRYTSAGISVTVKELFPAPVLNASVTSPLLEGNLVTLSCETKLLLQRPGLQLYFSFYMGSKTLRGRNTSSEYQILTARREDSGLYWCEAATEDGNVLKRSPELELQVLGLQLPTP

[13] = target: T9, recombinant human CD16a F158 (human, UniProt P08637 17-208); assay: SPR 25C, steady state, average
T9 construct: also called FcγRIIIa F158
T9 sequence (P08637 17-208 limits assumed): as the sequence (P08637 17-208 F176V limits assumed) above, with V160F counted along it

B1: AB0089 TriNKET (bispecific antibody, human IgG1, kappa)
chain: QLQLQESGPGLVKPSETLSLTCTVSGFSLTNYGLHWIRQPPGKCLEWIGVIWVGGATDYNPSLKSRVTISVDTSKNQFSLKLSSVQAADTAVYYCAKGDYGDTLDYWGQGTLVTVSSGGGGSGGGGSGGGGSGGGGSDIQMTQSPSSLSASVGDRVTITCHASQNINFWLSWYQQKPGKAPKLLIYEASNLHTGVPSRFSGSGSGTDFTLTISSLQPEDFATYYCQQSHSYPLTFGCGTKLEIKGSDKTHTCPPCPAPELLGGPSVFLFPPKPKDTLMISRTPEVTCVVVDVSHEDPEVKFNWYVDGVEVHNAKTKPREEQYNSTYRVVSVLTVLHQDWLNGKEYKCKVSNKALPAPIEKTISKAKGQPREPRVYTLPPCRDELTKNQVSLTCLVKGFYPSDIAVEWESNGQPENNYKTTPPVLVSDGSFTLYSKLTVDKSRWQQGNVFSCSVMHEALHNHYTQKSLSLSPG
heavy: EVQLVESGGGLVKPGGSLRLSCAASGFTFSSYSMNWVRQAPGKGLEWVSSISSSSSYIYYADSVKGRFTISRDNAKNSLYLQMNSLRAEDTAVYYCARGAPIGAAAGWFDPWGQGTLVTVSSASTKGPSVFPLAPSSKSTSGGTAALGCLVKDYFPEPVTVSWNSGALTSGVHTFPAVLQSSGLYSLSSVVTVPSSSLGTQTYICNVNHKPSNTKVDKKVEPKSCDKTHTCPPCPAPELLGGPSVFLFPPKPKDTLMISRTPEVTCVVVDVSHEDPEVKFNWYVDGVEVHNAKTKPREEQYNSTYRVVSVLTVLHQDWLNGKEYKCKVSNKALPAPIEKTISKAKGQPREPQVCTLPPSRDELTENQVSLTCLVKGFYPSDIAVEWESNGQPENNYKTTPPVLDSDGSFFLYSWLTVDKSRWQQGNVFSCSVMHEALHNHYTQKSLSLSPG
light: DIQMTQSPSSVSASVGDRVTITCRASQGISSWLAWYQQKPGKAPKLLIYAASSLQSGVPSRFSGSGSGTDFTLTISSLQPEDFATYYCQQGVSFPRTFGGGTKVEIKRTVAAPSVFIFPPSDEQLKSGTASVVCLLNNFYPREAKVQWKVDNALQSGNSQESVTEQDSKDSTYSLSSTLTLSKADYEKHKVYACEVTHQGLSSPVTKSFNRGEC
notes: F3' format heterodimer of three chains; human IgG1 Fc with EW-RVT and Y349C/S354C mutations; also called AB0089 Lot AB0089-002; CLEC12A TriNKET AB0089
EC50, NK cell induction of IFNγ and CD107a in co-culture with PL21 cells (mean of three donors) [1]: 0.08 nM | kon [2]: 8.87e+06 M⁻¹ s⁻¹ | Kd [3]: 762 nM | koff [3]: 0.13 s⁻¹ | kon [3]: 171000 M⁻¹ s⁻¹ | Kd [4]: 320 nM | koff [4]: 0.0277 s⁻¹ | kon [4]: 86500 M⁻¹ s⁻¹ | Kd [5]: 954 nM and 823 nM and 930 nM and 895 nM | Kd [6]: 1340 nM and 1020 nM and 1600 nM and 1060 nM | Kd [7]: 772 nM | koff [7]: 0.135 s⁻¹ | kon [7]: 175000 M⁻¹ s⁻¹ | Kd [8]: 323 nM | koff [8]: 0.0276 s⁻¹ | kon [8]: 85300 M⁻¹ s⁻¹ | kon [9]: 9.93e+06 M⁻¹ s⁻¹ | Kd [10]: 881 nM | koff [10]: 0.143 s⁻¹ | kon [10]: 162000 M⁻¹ s⁻¹

B2: AB0192 TriNKET (other)
chain: EVQLVESGGGVVQPGGSLRLSCAASGFTFNAFGMHWVRQAPGKCLEWVAFISSGSTSIYYANTVKGRFTISRDNSKNTLYLQMNSLRAEDTAVYYCARDGYPTGGAMDYWGQGTSVTVSSGGGGSGGGGSGGGGSGGGGSDIQMTQSPSSLSASVGDRVTITCKASQDIYNYLSWFQQKPGKAPKPLIYRANILVSGVPSRFSGSGSGQDYTFTISSLQPEDIATYYCLQFDAFPFTFGCGTKLEIKGSDKTHTCPPCPAPELLGGPSVFLFPPKPKDTLMISRTPEVTCVVVDVSHEDPEVKFNWYVDGVEVHNAKTKPREEQYNSTYRVVSVLTVLHQDWLNGKEYKCKVSNKALPAPIEKTISKAKGQPREPRVYTLPPCRDELTKNQVSLTCLVKGFYPSDIAVEWESNGQPENNYKTTPPVLVSDGSFTLYSKLTVDKSRWQQGNVFSCSVMHEALHNHYTQKSLSLSPG
heavy: EVQLVESGGGLVKPGGSLRLSCAASGFTFSSYSMNWVRQAPGKGLEWVSSISSSSSYIYYADSVKGRFTISRDNAKNSLYLQMNSLRAEDTAVYYCARGAPIGAAAGWFDPWGQGTLVTVSSASTKGPSVFPLAPSSKSTSGGTAALGCLVKDYFPEPVTVSWNSGALTSGVHTFPAVLQSSGLYSLSSVVTVPSSSLGTQTYICNVNHKPSNTKVDKKVEPKSCDKTHTCPPCPAPELLGGPSVFLFPPKPKDTLMISRTPEVTCVVVDVSHEDPEVKFNWYVDGVEVHNAKTKPREEQYNSTYRVVSVLTVLHQDWLNGKEYKCKVSNKALPAPIEKTISKAKGQPREPQVCTLPPSRDELTENQVSLTCLVKGFYPSDIAVEWESNGQPENNYKTTPPVLDSDGSFFLYSWLTVDKSRWQQGNVFSCSVMHEALHNHYTQKSLSLSPG
light: DIQMTQSPSSVSASVGDRVTITCRASQGISSWLAWYQQKPGKAPKLLIYAASSLQSGVPSRFSGSGSGTDFTLTISSLQPEDFATYYCQQGVSFPRTFGGGTKVEIKRTVAAPSVFIFPPSDEQLKSGTASVVCLLNNFYPREAKVQWKVDNALQSGNSQESVTEQDSKDSTYSLSSTLTLSKADYEKHKVYACEVTHQGLSSPVTKSFNRGEC
notes: the condition stands under assay; also called AB0192 Lot AB0192-005
koff [11]: 0.146 s⁻¹ | kon [11]: 188000 M⁻¹ s⁻¹

B3: F3'-1602 TriNKET (other)
chain: QLQLQESGPGLVKPSETLSLTCTVSGFSLTNYGLHWIRQPPGKCLEWIGVIWSGGKTDYNPSLKSRVTISKDTSKNQFSLKLSSVQAADTAVYYCAKYDYDDSLDYWGQGTLVTVSSGGGGSGGGGSGGGGSGGGGSDIQMTQSPSSLSASVGDRVTITCHASQNINFWLSWYQQKPGKAPKLLIYEASNLHTGVPSRFSGSGSGTRFTLTISSLQPEDIATYYCQQSHSYPLTFGCGTKLEIKGSDKTHTCPPCPAPELLGGPSVFLFPPKPKDTLMISRTPEVTCVVVDVSHEDPEVKFNWYVDGVEVHNAKTKPREEQYNSTYRVVSVLTVLHQDWLNGKEYKCKVSNKALPAPIEKTISKAKGQPREPRVYTLPPCRDELTKNQVSLTCLVKGFYPSDIAVEWESNGQPENNYKTTPPVLVSDGSFTLYSKLTVDKSRWQQGNVFSCSVMHEALHNHYTQKSLSLSPG
heavy: EVQLVESGGGLVKPGGSLRLSCAASGFTFSSYSMNWVRQAPGKGLEWVSSISSSSSYIYYADSVKGRFTISRDNAKNSLYLQMNSLRAEDTAVYYCARGAPIGAAAGWFDPWGQGTLVTVSSASTKGPSVFPLAPSSKSTSGGTAALGCLVKDYFPEPVTVSWNSGALTSGVHTFPAVLQSSGLYSLSSVVTVPSSSLGTQTYICNVNHKPSNTKVDKKVEPKSCDKTHTCPPCPAPELLGGPSVFLFPPKPKDTLMISRTPEVTCVVVDVSHEDPEVKFNWYVDGVEVHNAKTKPREEQYNSTYRVVSVLTVLHQDWLNGKEYKCKVSNKALPAPIEKTISKAKGQPREPQVCTLPPSRDELTENQVSLTCLVKGFYPSDIAVEWESNGQPENNYKTTPPVLDSDGSFFLYSWLTVDKSRWQQGNVFSCSVMHEALHNHYTQKSLSLSPG
light: DIQMTQSPSSVSASVGDRVTITCRASQGISSWLAWYQQKPGKAPKLLIYAASSLQSGVPSRFSGSGSGTDFTLTISSLQPEDFATYYCQQGVSFPRTFGGGTKVEIKRTVAAPSVFIFPPSDEQLKSGTASVVCLLNNFYPREAKVQWKVDNALQSGNSQESVTEQDSKDSTYSLSSTLTLSKADYEKHKVYACEVTHQGLSSPVTKSFNRGEC
notes: CLEC12A scFv-Fc, NKG2D A49MI Fab-Fc, human IgG1 Fc; also called AB0237
Kd [12]: 5.2 nM and 5.3 nM | koff [12]: 0.00027 s⁻¹ and 0.00028 s⁻¹ and 0.00026 s⁻¹ | kon [12]: 53000 M⁻¹ s⁻¹ and 52000 M⁻¹ s⁻¹ and 51000 M⁻¹ s⁻¹ | Kd [13]: 1110 nM
